± gives the uncertainty stated by the source.
Test: self-splicing fitness, log relative to wild type (ln ratio); higher = more splicing; Tetrahymena group I intron in knt gene, E. coli kanamycin selection, DiMSum; sequences stand for … in CUCUCU…GGAGGGAAAAGUUAUCAGGCAUGCACCUGGUAGCUAGUCUUUAAACCAAUAGAUUGCAUCGGUUUAAAAGGCAAGACCGUCAAAUUGCGGGAAAGGGGUCAACAGCCGUUCAGUACCAAGUCUCAGGGGAAACUUUGAGAUGGCCUUGCAAAGGGUAUGGUAAUAAGCUGACGGACAUGGUCCUAACCACGCAGCCAAGUCCUAAGUCAACAGAUCUUCUGUUGAUAUGGAUGCAGUUCACAGACUAAAUGUCGGUCGGGGAAGAUGUAUUCUUCUCAUAAGAUAUAGUCGGACCUCUCCUUAAUGGGAGCUAGCGGAUGAAGUGAUGCAACACUGGAGCCGCUGGGAACUAAUUUGUAUGCGAAAGUAUAUUGAUUAGUUUUGGAGUACUCGUGGUCG
Outline: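 Pooled colonies went to amplicon sequencing on an Illumina HiSeq 2500 after six replicate transformations. The plates were LB agar with 100 μg/mL carbenicillin, 50 μM IPTG and 0.2% rhamnose, with or without 25 μg/mL kanamycin, incubated overnight at 37°C or 30°C. The E. coli BL21(DE3) library had all eight P1ex-region intron nucleotides randomised, the intron placed in the knt kanamycin-resistance gene on pET-22b(+). DiMSum fitness is the error-weighted combination of replicate fold changes, kanamycin against none, normalised to wild type.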

Row | Sequence | self-splicing fitness (ln) (30 °C) | self-splicing fitness (ln) (37 °C)
1 | ACACAGCAAUAUUACGACAC | -1.35 ± 0.081 | 0.0205 ± 0.11
2 | ACACAGCAAUAUUACGACCC | -0.35 ± 0.14 | -0.0588 ± 0.2
3 | ACACAGCAAUAUUACGAGAU | -3.79 ± 0.16 | -0.784 ± 0.11
4 | ACACAGCAAUAUUACGAGGA | -2.42 ± 0.2 | -1.66 ± 0.18
5 | ACACAGCAAUAUUACGAUAG | -2.96 ± 0.074 | -1.62 ± 0.069
6 | ACACAGCAAUAUUACGAUUA | -1.66 ± 0.087 | -0.929 ± 0.07
7 | ACACAGCAAUAUUACGCAAU | -3.32 ± 0.15 | -1.94 ± 0.15
8 | ACACAGCAAUAUUACGCAGA | -2.48 ± 0.16 | -1.75 ± 0.12
9 | ACACAGCAAUAUUACGCCGU | -2.08 ± 0.13 | -1.13 ± 0.18
10 | ACACAGCAAUAUUACGCCUC | -2.92 ± 0.18 | -1.73 ± 0.2
11 | ACACAGCAAUAUUACGCGUA | -1.89 ± 0.078 | -1.2 ± 0.074
12 | ACACAGCAAUAUUACGCGUC | -3.69 ± 0.11 | -3.32 ± 0.15
13 | ACACAGCAAUAUUACGCUAA | -2.03 ± 0.1 | -1.19 ± 0.1
14 | ACACAGCAAUAUUACGCUGG | -1.21 ± 0.063 | -1.33 ± 0.091
15 | ACACAGCAAUAUUACGCUGU | -3.38 ± 0.14 | -3 ± 0.21
16 | ACACAGCAAUAUUACGGCAA | -1.49 ± 0.077 | -0.943 ± 0.081
17 | ACACAGCAAUAUUACGGCAG | -1.29 ± 0.067 | -0.371 ± 0.082
18 | ACACAGCAAUAUUACGGCAU | -1.12 ± 0.049 | 0.227 ± 0.062
19 | ACACAGCAAUAUUACGGCCC | -1.48 ± 0.13 | 0.924 ± 0.21
20 | ACACAGCAAUAUUACGGCUU | -0.496 ± 0.04 | -0.0695 ± 0.057
21 | ACACAGCAAUAUUACGGGUU | -2.86 ± 0.077 | -1.85 ± 0.082
22 | ACACAGCAAUAUUACGGUAC | -4.03 ± 0.23 | -2.03 ± 0.14
23 | ACACAGCAAUAUUACGGUGC | -3.91 ± 0.16 | -2.61 ± 0.14
24 | ACACAGCAAUAUUACGGUUG | -1.37 ± 0.066 | -1.31 ± 0.11

From the supplement of paper PMC7877785
